Laboratory results taken from ChEMBL document CHEMBL3232870, “Discovery of 3-(4-methanesulfonylphenoxy)-N-[1-(2-methoxy-ethoxymethyl)-1H-pyrazol-3-yl]-5-(3-methylpyridin-2-yl)-benzamide as a novel glucokinase activator (GKA) for the treatment of type 2 diabetes mellitus” (Bioorg Med Chem, 2014).

Substrate: COCCOCn1ccc(NC(=O)c2cc(Oc3ccc(S(C)(=O)=O)cc3)cc(-c3ncccc3C)c2)n1
Experiment: Activity of recombinant human pancreatic glucokinase assessed as glucose half-maximal activity

B1: Hexokinase-4 (Homo sapiens), P35557 (protein)
chain: MLDDRARMEAAKKEKVEQILAEFQLQEEDLKKVMRRMQKEMDRGLRLETHEEASVKMLPTYVRSTPEGSEVGDFLSLDLGGTNFRVMLVKVGEGEEGQWSVKTKHQMYSIPEDAMTGTAEMLFDYISECISDFLDKHQMKHKKLPLGFTFSFPVRHEDIDKGILLNWTKGFKASGAEGNNVVGLLRDAIKRRGDFEMDVVAMVNDTVATMISCYYEDHQCEVGMIVGTGCNACYMEEMQNVELVEGDEGRMCVNTEWGAFGDSGELDEFLLEYDRLVDESSANPGQQLYEKLIGGKYMGELVRLVLLRLVDENLLFHGEASEQLRTRGAFETRFVSQVESDTGDRKQIYNILSTLGLRPSTTDCDIVRRACESVSTRAAHMCSAGLAGVINRMRESRSEDVMRITVGVDGSVYKLHPSFKERFHASVRRLTPSCEITFIESEEGSGRGAALVSAVACKKACMLGQ
  Vmax: 150%
